Columns and labels:
[1] = target: T1, β-catenin (human, UniProt P35222 2-781); experiment: co-IP with β-catenin antibody, anti-ATDC western blot, BxPC3 lysate
T1 construct: Endogenous protein in cell lysate; also called beta-catenin
T1 sequence (looked up): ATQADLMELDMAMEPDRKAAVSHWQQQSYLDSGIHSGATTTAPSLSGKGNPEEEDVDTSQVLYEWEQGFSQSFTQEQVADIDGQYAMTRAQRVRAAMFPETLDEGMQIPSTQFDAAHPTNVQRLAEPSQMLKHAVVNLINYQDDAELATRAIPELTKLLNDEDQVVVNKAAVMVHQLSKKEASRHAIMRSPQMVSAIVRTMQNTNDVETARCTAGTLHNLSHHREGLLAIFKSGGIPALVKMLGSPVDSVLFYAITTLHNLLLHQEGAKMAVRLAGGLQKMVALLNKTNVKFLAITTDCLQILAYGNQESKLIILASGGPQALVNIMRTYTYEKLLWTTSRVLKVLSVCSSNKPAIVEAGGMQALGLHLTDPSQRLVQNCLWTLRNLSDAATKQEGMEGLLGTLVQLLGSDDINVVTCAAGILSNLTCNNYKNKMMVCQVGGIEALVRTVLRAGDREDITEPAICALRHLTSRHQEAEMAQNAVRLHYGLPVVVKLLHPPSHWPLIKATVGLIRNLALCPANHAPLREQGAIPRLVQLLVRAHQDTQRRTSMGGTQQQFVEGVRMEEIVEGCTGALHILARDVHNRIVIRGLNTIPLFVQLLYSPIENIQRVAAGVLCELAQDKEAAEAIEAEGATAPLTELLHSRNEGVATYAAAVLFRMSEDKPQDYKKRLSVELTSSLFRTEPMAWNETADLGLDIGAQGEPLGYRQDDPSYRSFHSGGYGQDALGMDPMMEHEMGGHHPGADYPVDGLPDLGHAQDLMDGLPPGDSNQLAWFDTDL
Experimental: HEK 293 cells with or without stable transfection of ATDC and BxPC-3 cells were lysed by sonicating for 5 sec in 1 ml of detergent free lysis buffer (PBS, 5 mM EDTA, 0.02% sodium azide, 10 mM iodoacetamide, 1 mM PMSF and 2 μg leupeptin) at 4° C. […] Antibody conjugated beads were prepared by combining 1 μg of polyclonal antibodies with 30 μl of a 50% protein A-Sepharose bead slurry in 0.5 ml of ice-cold PBS for 1 hr at 4° C. in a tube rotator and then were washed two times with 1 ml of lysis buffer. The antibodies used for co-immunoprecipitation were: Dvl-2, β-catenin (Cell Signaling Technology, Beverly, Mass.), axin, and GSK3β (Upstate, Temecula, Calif.). Cell lysates (500 μg) was incubated with the prepared beads and 10 μl of 10% BSA overnight at 4° C. The beads were washed four times with washing buffer (50 mM Tris-Hcl [pH 7.4], 300 mM NaCl, 5 mM EDTA, 0.02% sodium azide, 0.1% Triton X-100) and one time with ice-cold PBS. […] Images were visualized using an ECL detection system.
To ascertain the mechanism by which ATDC stabilizes β-catenin, it was first examined whether ATDC interacts with the components of the multi-protein complex that regulates β-catenin stability.

[2] = target: T2, disheveled-3 (Dvl-3) (human, UniProt Q92997 1-716, limits assumed); experiment: co-IP, BxPC3 lysate
T2 construct: Endogenous protein in cell lysate
T2 sequence (looked up): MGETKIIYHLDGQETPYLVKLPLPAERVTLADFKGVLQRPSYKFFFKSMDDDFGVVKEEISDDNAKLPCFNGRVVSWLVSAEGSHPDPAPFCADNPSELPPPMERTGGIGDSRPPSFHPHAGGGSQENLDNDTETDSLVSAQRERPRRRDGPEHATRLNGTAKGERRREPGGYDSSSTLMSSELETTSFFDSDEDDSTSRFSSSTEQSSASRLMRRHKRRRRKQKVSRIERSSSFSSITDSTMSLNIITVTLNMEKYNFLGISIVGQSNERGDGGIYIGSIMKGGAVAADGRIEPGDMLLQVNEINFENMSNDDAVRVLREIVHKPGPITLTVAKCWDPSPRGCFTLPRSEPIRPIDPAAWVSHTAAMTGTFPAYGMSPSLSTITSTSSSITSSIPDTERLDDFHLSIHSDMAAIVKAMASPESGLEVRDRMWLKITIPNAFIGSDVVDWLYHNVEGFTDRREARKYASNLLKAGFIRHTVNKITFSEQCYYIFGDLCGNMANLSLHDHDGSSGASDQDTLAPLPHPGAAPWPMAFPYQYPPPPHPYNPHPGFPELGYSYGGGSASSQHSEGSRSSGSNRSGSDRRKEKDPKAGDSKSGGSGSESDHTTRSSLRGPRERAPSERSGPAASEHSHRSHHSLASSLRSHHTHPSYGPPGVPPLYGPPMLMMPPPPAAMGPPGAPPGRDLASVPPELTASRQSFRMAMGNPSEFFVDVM

[3] = target: T3, disheveled-1 (Dvl-1) (human, UniProt O14640 1-695, limits assumed); experiment: co-IP, BxPC3 lysate
T3 construct: Endogenous protein in cell lysate
T3 sequence (looked up): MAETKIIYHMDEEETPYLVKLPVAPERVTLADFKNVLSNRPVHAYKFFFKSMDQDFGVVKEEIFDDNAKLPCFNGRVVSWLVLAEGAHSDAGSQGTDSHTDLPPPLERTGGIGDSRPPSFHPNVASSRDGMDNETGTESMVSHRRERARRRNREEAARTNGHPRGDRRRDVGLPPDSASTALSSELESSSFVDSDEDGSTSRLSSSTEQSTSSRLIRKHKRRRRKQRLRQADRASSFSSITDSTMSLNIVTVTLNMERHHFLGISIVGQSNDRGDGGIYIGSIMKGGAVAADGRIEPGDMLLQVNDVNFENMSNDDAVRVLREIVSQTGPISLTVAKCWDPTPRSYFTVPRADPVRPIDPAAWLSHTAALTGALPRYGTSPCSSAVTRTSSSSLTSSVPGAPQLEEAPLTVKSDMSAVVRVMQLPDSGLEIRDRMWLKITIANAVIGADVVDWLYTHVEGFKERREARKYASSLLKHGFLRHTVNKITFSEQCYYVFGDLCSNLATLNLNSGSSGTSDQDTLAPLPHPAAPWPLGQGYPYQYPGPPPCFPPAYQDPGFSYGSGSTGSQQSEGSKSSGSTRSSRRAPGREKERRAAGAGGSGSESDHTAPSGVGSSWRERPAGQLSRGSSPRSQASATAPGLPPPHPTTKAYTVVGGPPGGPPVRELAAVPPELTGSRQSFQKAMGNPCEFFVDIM

Measured: binding result

B1: ATDC (Ataxia-Telangiectasia Group D Complementing Gene, also known as TRIM29), endogenous (other, UniProt Q14134 1-588, looked up)
chain: MEAADASRSNGSSPEARDARSPSGPSGSLENGTKADGKDAKTTNGHGGEAAEGKSLGSALKPGEGRSALFAGNEWRRPIIQFVESGDDKNSNYFSMDSMEGKRSPYAGLQLGAAKKPPVTFAEKGELRKSIFSESRKPTVSIMEPGETRRNSYPRADTGLFSRSKSGSEEVLCDSCIGNKQKAVKSCLVCQASFCELHLKPHLEGAAFRDHQLLEPIRDFEARKCPVHGKTMELFCQTDQTCICYLCMFQEHKNHSTVTVEEAKAEKETELSLQKEQLQLKIIEIEDEAEKWQKEKDRIKSFTTNEKAILEQNFRDLVRDLEKQKEEVRAALEQREQDAVDQVKVIMDALDERAKVLHEDKQTREQLHSISDSVLFLQEFGALMSNYSLPPPLPTYHVLLEGEGLGQSLGNFKDDLLNVCMRHVEKMCKADLSRNFIERNHMENGGDHRYVNNYTNSFGGEWSAPDTMKRYSMYLTPKGGVRTSYQPSSPGRFTKETTQKNFNNLYGTKGNYTSRVWEYSSSIQNSDNDLPVVQGSSSFSLKGYPSLMRSQSPKAQPQTWKSGKQTMLSHYRPFYVNKGNGIGSNEAP
notes: Endogenous protein in lysates of human pancreatic cancer cell lines (BxPC3, Panc-1); also called endogenous ATDC
no binding: all assays above

— patent US20090192112A1 (REGENTS OF THE UNIVERSITY OF MICHIGAN, published 2009)
